# Measured values as given in patent publication US5885797.
# How the values were obtained:
# [1] = target: Myf5 (full length, mouse) (mouse) (UniProt P24699); experiment: yeast hybrid assay, strain L40, β-galactosidase reporter
# [2] = target: VP16 (Human herpesvirus 1 (strain 17) (HHV-1) (Human herpes simplex virus 1)) (UniProt P06492); experiment: as above
# VP16-I-mfa (mouse) [3] = target: T1, VP16-I-mfa (mouse); experiment: as above
# T1 sequence: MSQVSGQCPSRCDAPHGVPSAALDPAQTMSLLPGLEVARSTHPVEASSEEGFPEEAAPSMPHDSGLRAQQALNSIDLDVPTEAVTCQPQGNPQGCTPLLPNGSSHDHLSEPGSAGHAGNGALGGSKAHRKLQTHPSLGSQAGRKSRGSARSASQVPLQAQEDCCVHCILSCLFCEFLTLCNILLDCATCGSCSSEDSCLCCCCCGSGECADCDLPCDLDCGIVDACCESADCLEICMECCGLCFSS
# VP16-I-mfc (mouse) [4] = experiment: as above
# VP16-I-mfb (mouse) [5] = experiment: as above
# [6] = target: Myf5 (full length, mouse) (mouse) (UniProt P24699); experiment: yeast hybrid assay, strain L40, β-galactosidase reporter; this LexA fusion is also active with VP16 alone
# VP16-I-mfa (mouse) [7] = target: T1, VP16-I-mfa (mouse); experiment: as above
# VP16-I-mfb (mouse) [8] = experiment: as above
# VP16-I-mfc (mouse) [9] = experiment: as above
# E12 [10] = experiment: yeast one-hybrid, strain L40, β-galactosidase reporter
# [11] = target: T2, Lethal of Scute (AS-C T3) (Drosophila melanogaster (Fruit fly)) (UniProt P09774); experiment: as above
# T2 sequence: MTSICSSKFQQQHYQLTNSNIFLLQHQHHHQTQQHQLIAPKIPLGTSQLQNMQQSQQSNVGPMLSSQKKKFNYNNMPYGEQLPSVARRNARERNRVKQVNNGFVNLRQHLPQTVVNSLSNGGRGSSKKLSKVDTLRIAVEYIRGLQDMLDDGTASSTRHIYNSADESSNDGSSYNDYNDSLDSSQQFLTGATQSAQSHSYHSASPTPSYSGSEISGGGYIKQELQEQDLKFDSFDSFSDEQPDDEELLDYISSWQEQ
# [12] = target: Myf5 (full length, mouse) (mouse) (UniProt P24699); experiment: as above
# [13] = target: MyoD (full length, mouse) (mouse) (UniProt P10085); experiment: as above
# [14] = target: Myogenin (full length, mouse) (mouse) (UniProt P12979); experiment: as above
# Myogenin (full length, mouse) (mouse), sequence (P12979 whole entry): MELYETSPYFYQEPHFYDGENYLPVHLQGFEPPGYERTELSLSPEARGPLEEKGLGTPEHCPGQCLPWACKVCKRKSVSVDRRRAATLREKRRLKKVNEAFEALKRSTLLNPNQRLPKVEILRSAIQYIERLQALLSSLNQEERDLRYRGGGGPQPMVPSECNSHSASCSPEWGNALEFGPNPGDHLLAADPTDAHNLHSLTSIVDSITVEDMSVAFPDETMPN
# [15] = target: full length Myf5 or myogenin; experiment: as above
# [16] = target: MyoDΔC-VP16 (Mus musculus (Mouse)) (UniProt P10085); experiment: yeast two-hybrid, strain L40, β-galactosidase reporter
# [17] = target: MyoDΔN-VP16 (Mus musculus (Mouse)) (UniProt P10085); experiment: as above
# Myf5 (Mus musculus) = experiment: cell_activity; settings: NIH3T3
# MyoD (Mus musculus) = experiment: cell_activity; settings: NIH3T3
# Myogenin (Mus musculus) = experiment: cell_activity; settings: NIH3T3
# E12 [18] = experiment: cell_activity; settings: NIH3T3; 76.3% with I-mfa
# LexA-I-mfa, sequence (P0A7C2 other isoform, or with tags, fused parts or gaps limits assumed): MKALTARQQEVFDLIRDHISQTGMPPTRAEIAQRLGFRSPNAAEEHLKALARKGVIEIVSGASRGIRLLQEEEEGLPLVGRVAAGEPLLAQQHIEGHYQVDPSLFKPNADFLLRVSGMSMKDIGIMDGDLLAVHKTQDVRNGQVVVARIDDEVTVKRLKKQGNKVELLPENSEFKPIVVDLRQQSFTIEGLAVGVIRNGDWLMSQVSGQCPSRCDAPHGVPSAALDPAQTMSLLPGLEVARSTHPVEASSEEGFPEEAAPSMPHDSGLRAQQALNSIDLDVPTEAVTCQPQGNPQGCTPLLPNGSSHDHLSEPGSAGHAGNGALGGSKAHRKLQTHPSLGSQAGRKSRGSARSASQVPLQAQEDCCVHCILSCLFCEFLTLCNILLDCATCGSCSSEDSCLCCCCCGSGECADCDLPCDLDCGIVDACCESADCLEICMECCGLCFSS
# LexA-I-mfc, sequence (P0A7C2 other isoform, or with tags, fused parts or gaps limits assumed): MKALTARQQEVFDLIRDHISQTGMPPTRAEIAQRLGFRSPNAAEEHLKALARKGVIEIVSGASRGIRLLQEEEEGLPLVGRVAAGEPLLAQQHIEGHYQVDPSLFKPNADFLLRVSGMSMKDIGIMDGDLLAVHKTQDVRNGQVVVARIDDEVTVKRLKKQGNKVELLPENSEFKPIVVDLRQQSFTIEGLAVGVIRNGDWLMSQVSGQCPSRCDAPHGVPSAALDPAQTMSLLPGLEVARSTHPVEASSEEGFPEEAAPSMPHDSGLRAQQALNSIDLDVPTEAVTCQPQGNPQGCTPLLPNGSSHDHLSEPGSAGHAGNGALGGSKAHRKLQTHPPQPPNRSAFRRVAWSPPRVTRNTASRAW
# LexA-I-mfb, sequence (P0A7C2 other isoform, or with tags, fused parts or gaps limits assumed): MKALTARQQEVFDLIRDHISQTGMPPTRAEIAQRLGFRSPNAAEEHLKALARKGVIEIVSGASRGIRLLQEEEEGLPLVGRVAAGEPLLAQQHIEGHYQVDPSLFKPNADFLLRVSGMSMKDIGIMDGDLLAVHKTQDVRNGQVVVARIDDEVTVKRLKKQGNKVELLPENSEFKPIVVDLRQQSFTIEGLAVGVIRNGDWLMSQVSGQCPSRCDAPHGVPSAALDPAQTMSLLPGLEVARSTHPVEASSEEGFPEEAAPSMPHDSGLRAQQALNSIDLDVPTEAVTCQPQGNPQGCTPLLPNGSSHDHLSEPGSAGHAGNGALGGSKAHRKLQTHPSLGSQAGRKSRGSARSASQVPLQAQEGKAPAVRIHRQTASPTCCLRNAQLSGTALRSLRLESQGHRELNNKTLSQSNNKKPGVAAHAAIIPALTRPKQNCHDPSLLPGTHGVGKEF
# LexA-I-mfa (163-246), sequence (P0A7C2 other isoform, or with tags, fused parts or gaps limits assumed): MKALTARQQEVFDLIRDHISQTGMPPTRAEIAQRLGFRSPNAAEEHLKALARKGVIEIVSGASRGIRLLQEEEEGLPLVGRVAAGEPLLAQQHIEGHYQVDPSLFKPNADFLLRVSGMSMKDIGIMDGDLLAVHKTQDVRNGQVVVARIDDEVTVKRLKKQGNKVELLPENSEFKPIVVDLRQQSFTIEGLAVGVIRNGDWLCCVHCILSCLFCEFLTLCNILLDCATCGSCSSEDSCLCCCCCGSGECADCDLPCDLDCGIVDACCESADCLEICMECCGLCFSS
# LexA-I-mfa (203-246), sequence (P0A7C2 other isoform, or with tags, fused parts or gaps limits assumed): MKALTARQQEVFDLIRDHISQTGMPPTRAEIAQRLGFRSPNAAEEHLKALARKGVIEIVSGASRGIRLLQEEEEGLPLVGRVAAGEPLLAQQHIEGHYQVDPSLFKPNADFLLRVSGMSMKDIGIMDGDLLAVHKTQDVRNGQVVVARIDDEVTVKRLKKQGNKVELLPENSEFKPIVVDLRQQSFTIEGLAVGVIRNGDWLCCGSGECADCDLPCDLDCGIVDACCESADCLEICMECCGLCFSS
Substance,β-galactosidase activity (arbitrary units) [1],β-galactosidase activity (arbitrary units) [2],β-galactosidase activity (arbitrary units) (VP16-I-mfa (mouse) [3]),β-galactosidase activity (arbitrary units) (VP16-I-mfc (mouse) [4]),other results
LexA-I-mfa (1-202) (from UniProt P0A7C2),34.5,< 0.1,95,,
LexA-I-mfa (29-246) (from UniProt P0A7C2),84.7,0.8,10.1,,
LexA-I-mfa (87-202) (from UniProt P0A7C2),27.6,< 0.1,9.3,,
LexA-I-mfa (87-246) (from UniProt P0A7C2),74.3,0.8,12.5,0.7,
LexA-I-mfa (163-246) (from UniProt P0A7C2),71.3,0.3,3.8,0.2,β-galactosidase activity (arbitrary units) (VP16-I-mfb (mouse) [5]): 0.6
LexA-I-mfa (203-246) (from UniProt P0A7C2),,45.8,,,β-galactosidase activity (arbitrary units) [6]: 57.2; β-galactosidase activity (arbitrary units) (VP16-I-mfa (mouse) [7]): 95.2; β-galactosidase activity (arbitrary units) (VP16-I-mfb (mouse) [8]): 39.2; β-galactosidase activity (arbitrary units) (VP16-I-mfc (mouse) [9]): 52.3
LexA-I-mfa (from UniProt P0A7C2),66,0.5,6.4,,β-galactosidase activity (arbitrary units) (E12 [10]): 2.3; β-galactosidase activity (arbitrary units) [11]: 2.3; β-galactosidase activity (arbitrary units) [12]: 68.5; fold β-galactosidase activity over the LexA-I-mfa control [13]: 5 fold; β-galactosidase activity (arbitrary units) [13]: 4.3; β-galactosidase activity (arbitrary units) [14]: 63.6; fold β-galactosidase activity over LexA-I-mfa alone [15]: 70 to 80 fold; β-galactosidase activity (arbitrary units) [16]: 5.6; β-galactosidase activity (arbitrary units) [17]: 96.4
LexA-I-mfa(163-202) (from UniProt P0A7C2),57.1,,4.3,< 0.1,β-galactosidase activity (arbitrary units) (VP16-I-mfb (mouse) [5]): 0.2
LexA-I-mfb (from UniProt P0A7C2),< 0.1,< 0.1,0.2,,β-galactosidase activity (arbitrary units) (E12 [10]): 0.6; β-galactosidase activity (arbitrary units) [12]: 0.4; β-galactosidase activity (arbitrary units) [13]: 1.1; β-galactosidase activity (arbitrary units) (VP16-I-mfb (mouse) [5]): < 0.1
LexA-I-mfc (from UniProt P0A7C2),,< 0.1,< 0.1,< 0.1,β-galactosidase activity (arbitrary units) (E12 [10]): 1.4; β-galactosidase activity (arbitrary units) [11]: 0.1; β-galactosidase activity (arbitrary units) [13]: 0.4
"MCK-CAT reporter, 3.3 kb MCK promoter",,,,,"activity (Myf5 (Mus musculus); reduced to 9% by I-mfa, text names p4R-TK-CAT but Table 6 MCK-CAT): 79500 CAT units; activity (MyoD (Mus musculus); reduced to 27% by I-mfa, text names p4R-TK-CAT but Table 6 MCK-CAT): 37200 CAT units; activity (Myogenin (Mus musculus); reduced to 2% by I-mfa, text names p4R-TK-CAT but Table 6 MCK-CAT): 33000 CAT units"
"p4R-TK-CAT reporter, four oligomerized MyoD binding sites (E boxes)",,,,,activity (E12 [18]): 53600 CAT units; activity (Myf5 (Mus musculus); reduced to 0.9% by I-mfa): 53100 CAT units; activity (MyoD (Mus musculus); reduced to 10.6% by I-mfa): 55400 CAT units; activity (Myogenin (Mus musculus); reduced to 1.5% by I-mfa): 17400 CAT units
